# From the DeepSol protein solubility set
# Assay: soluble on expression in E. coli; label from the status in PepcDB or PDB records
row,Sequence,soluble on expression in E. coli
1,MSLRDLKTLLIVIDGVSYSVFNQFRYNLDTMNNLIENGSFGKLESVFPTITPVALASLFTGYLPLNHGITSTKIFIKGNSLSKPLSAHSSTPLKVDPIWYLLAKKGYKVVVASAPQALPDKWKLKNLTLFDPYKSKIKECSDGALLNIGNTTINEVNFDIESNNNEYTIKITDIENNTLSLKLRQNEWTSPLEVIMGCKGKEMKGTFRLKGLSNGVYLTPVSFLIPSWSNNQELQNEIWENVVKKYGMLLDGDYISLKSNIIGFSEYYETLKFAYEFFYNYSLYLLKREEWDFAITYLPIVDNIQHLLFGVDDSQSLDYVFQVYKMADNFVKAHIELADNIIICSDHGINKVKKRLYLNKFLEELNVLKTVDDKKIDWKRTKAYYGGGGIIRINLREREKFGIVGKKEFNKLIKYLTINLERLEDPDTGERIFTVIYSNETPASDRQGDIMIDGVNPKYSISSNIEKDTIFENVIPYRTTTADHGYYRNDDINGIIIFYGKNFTKKQVNMKIVDVTPTILKLYGINCKSDGKIVNEVFKNGHADSTKEGHHHHHH,not soluble
2,MGSDKIHHHHHHMRFYPWLQWLKRKTAGAGCVHQFIQTQCPAPAESGTQEPPPAEQDTQTESNAMPSLALRIGDKNFRATLYDNDSTRSLLKKLPLTLTMDELNGNEKFYFFSEKLPSASERVGSIKTGDLMLYGSDCLVLFYESFPTSYSYTRLGTVDDVTGLANALGSGSVEVTFSIN,not soluble
3,MGAGEKGIVEKEGYQLDTRRQAQAAYPRIKVLVIHYTADDFDSSLATLTDKQVSSHYLVPAVPPRYNGKPRIWQLVPEQELAWHAGISAWRGATRLNDTSIGIELENRGWQKSAGVKYFAPFEPAQIQALIPLAKDIIARYHIKPENVVAHADIAPQRKDDPGPLFPWQQLAQQGIGAWPDAQRVNFYLAGRAPHTPVDTASLLELLARYGYDVKPDMTPREQRRVIMAFQMHFRPTLYNGEADAETQAIAEALLEKYGQD,soluble
4,MRSRRVDVMDVMNRLILAMDLMNRDDALRVTGEVREYIDTVKIGYPLVLSEGMDIIAEFRKRFGCRIIADFKVADIPETNEKICRATFKAGADAIIVHGFRGADSVRACLNVAEEMGREVFLLTEMSHPGAEMFIQGAADEIARMGVDLGVKNYVGPSTRPERLSRLREIIGQDSFLISPGVGAQGGDPGETLRFADAIIVGRSIYLADNPAAAAAGIIESIKDLLNP,not soluble
5,MSLPRRPTSSAREGDGGKRSGHTFAAVEAIGRALPDVEVTTAWGQPALKVHGKMFVCVASHKSAEPNSLVVMMAFADRDALVEDDPATYYLRKHYLNHPCVLVRLTRIRLDALRDLVVGAHRLVNVQMRSKSDIGSQGTSRPLRDRREGHHHHHH,soluble
6,PAFALTSPWAGSDAAAIPDHGTVCKGQWQGQEVLGMRVTWDKRYITLAPVCTLLGLAFRLYDPDGLLGGRKDLGITCALVPHDHPGVDTGRRHFPLNAMFMNGPTRGTDVFMPLEFIIDG,not soluble
7,MGSDKIHHHHHHRTKDQYYELRDFALGTSVRIVVSSQKINPRTIAEAILEDMKRITYKFSFTDERSVVKKINDHPNEWVEVDEETYSLIKAACAFAELTDGAFDPTVGRLLELWGFTGNYENLRVPSREEIEEALKHTGYKNVLFDDKNMRVMVKNGVKIDLGGIAKGYALDRARQIALSFDENATGFVEAGGDVRIIGPKFGKYPWVIGVKDPRGDDVIDYIYLKSGAVATSGDYERYFVVDGVRYHHILDPSTGYPARGVWSVTIIAEDATTADALSTAGFVMAGKDWRKVVLDFPNMGAHLLIVLEGGAIERSETFKLFERE,soluble
8,AQELQTANEFTVHTDLSSISSTRAFLKEKHKAAKHIGVRADIPFDANQGIRLEAGFGRSKKNIINLETDENKLGKTKNVKLPTGVPENRIDLYTGYTYTQTLSDSLNFRVGAGLGFESSKDSIKTTKHTLHSSRQSWLAKVHADLLSQLGNGWYINPWSEVKFDLNSRYKLNTGVTNLKKDINQKTNGWGFGLGANIGKKLGESASIEAGPFYKQRTYKESGEFSVTTKSGDVSLTIPKTSIREYGLRVGIKF,soluble
9,GPGSMNHLAGKIHVVQTPEEGRRFSLEQVVLPVLGNGAERLVSPDGKMREASERLAQELQIEGLMKMKAAPPATYRRLVVRPRDFTYCLFDDERGWCWESNNEAPIRPQLWEDQEGIMRQLSPLSVATGKNIIARNGIRGAEQRSHFLKAARRSGMTCVLRMTLPRGSAVTSALREAFQFATLDPGVIFHLLR,not soluble
10,MKFKIHSDITYQVMSPTTFIFNVHALRTESQHILDESLIVTPPIEIEEFSYNSGTSRFVRLKATENTTFSMSYTATVDTQYKVIDQRQELETVPVVDLDGDIIPFLFPSRYCQSDKLQKLAYKEFGKIENVYSKVLAITDWIYNNVEYISGSTNSQTSAFDTITERAGVCRDFAHLGIALCRALSIPARYFTGYAFKLNPPDFHACFEAYIGGNWIIFDATRLVPLNGLVKIATGRDAADAAVASIFGNASSTNMHVECASLDTDFTPFWYDKNSLKGLSFQ,soluble
11,MTLTPEASKSVAQPPTQAPLTQEEAIASLGRYGYGWADSDVAGANAQRGLSEAVVRDISAKKNEPDWMLQSRLKALRIFDRKPIPKWGSNLDGIDFDNIKYFVRSTEKQAASWDDLPEDIRNTYDRLGIPEAEKQRLVAGVAAQYESEVVYHQIREDLEAQGVIFLDTDTGLREHPDIFKEYFGTVIPAGDNKFSALNTAVWSGGSFIYVPPGVHVDIPLQAYFRINTENMGQFERTLIIADEGSYVHYVEGCLPAGELITTADGDLRPIESIRVGDFVTGHDGRPHRVTAVQVRDLDGELFTFTPMSPANAFSVTAEHPLLAIPRDEVRVMRKERNGWKAEVNSTKLRSAEPRWIAAKDVAEGDFLIYPKPKPIPHRTVLPLEFARLAGYYLAEGHACLTNGCESLIFSFHSDEFEYVEDVRQACKSLYEKSGSVLIEEHKHSARVTVYTKAGYAAMRDNVGIGSSNKKLSDLLMRQDETFLRELVDAYVNGDGNVTRRNGAVWKRVHTTSRLWAFQLQSILARLGHYATVELRRPGGPGVIMGRNVVRKDIYQVQWTEGGRGPKQARDCGDYFAVPIKKRAVREAHEPVYNLDVENPDSYLAYGFAVHNCTAPIYKSDSLHSAVVEIIVKPHARVRYTTIQNWSNNVYNLVTKRARAEAGATMEWIDGNIGSKVTMKYPAVWMTGEHAKGEVLSVAFAGEDQHQDTGAKMLHLAPNTSSNIVSKSVARGGGRTSYRGLVQVNKGAHGSRSSVKCDALLVDTVSRSDTYPYVDIREDDVTMGHEATVSKVSENQLFYLMSRGLTEDEAMAMVVRGFVEPIAKELPMEYALELNRLIELQMEGAVG,not soluble
12,MGSDKIHHHHHHMYTMFYTSKTALSANQSKLDIISNNIANSDSTGYKKINMEYSDLVDEVLNRPSYPTNGNDISTGTGAKATAPMRNYEQGALAPTDSKSNLAIDGEGFFRVIRKDGTYAYTRNGGFNVDALGKIVDDNGNILDVQFDAGYNYNNTNIDSTNLTVSRNGELFVDNKKIGKINLYQPIGTQNFISEGDSLFVATDAAQIKQVEKVDIVQGYRERSNVSLQEEFVDLIATQRAFQMNSKGIKTADEMWQIANNLRAK,not soluble
13,MAPRSYWKGYLKLSLVTCPVTLMPATSEAERVRFRTLNGRTGHPVVSRYLDAETGDVVDDDDQVKGYPRSETEHVILEEEELDAVALESARTIDIDCFVPSDEIAWIWYDRPHYLMPADPIGEEAFAVIREAMRATDRSGVARLVLGGRERAVLLMPRGEGIILWTLRYGDEVRPEEAYFGDLAAGKPDPKALTLVKRLIEERTRTWEPGMVEDPVQENLLELIRSKKPKKRSRKAGAKAPKGGDNVVSIMDALRKSIEGKG,not soluble
14,MREAMFYEKLDDNKVRCHICPRHCIIKEGERGFCWNRENINGVLYAVGYGKVCSLAIDPIEKKPLFHFYPTTQVVSLAIGGCNFRCLHCQNWTISQFPPDEIPYREMTPEEIVEVAIRYNCPGISYTYTEPTVYYEFMYDTSVIARENGMFNVMITNGYIEKEPLKALPVDAMNIDIKGNADFYKKVCKATLEPVLETCKLAKKLGIWVEVTNLIVPNYNDNIDDLLFIIHFVRDELGRETPLHFSRFHPDYKLTDVPPTPIETLEMARNLAIEEGLKYVYIGNVPGHEGENTYCPNCGALLIERYIFNAKIINLDVETKRCKICGEKIDIVL,not soluble
15,MGSDKIHHHHHHMDKMLYTAASGASRIMEAQSIRANNLANAETTGFKADLERVKSMALPGVEASLSTRVLVQTQSNGFSQQSGEMNHTGRNLDMAIRDRGLFTVMVDGGEAYTRAGAMIADAEGQLTVNGRPVLGIDGPMVLPEHKDLFVGEDGTISVLPAEGGVIQEVGRLKMVNPELNELTKGADGLLYPIAAGVLAADDGVQVDSGYLESSNVQAVSELIASMDLSRQFEIQVKLMKSAEKLAEAGNRLIRNA,not soluble
16,MASKGAARVRKKEIVKVVHGALLRTNIKAQMASAAPPLGPQLGQRGLNVANFCKEFNKETGHFKQGVPLPTRITVKPDRTYDLEICTPTTTWLLKQAAGIGRGKASKDEIVGKLTVKHLYEIAKIKSRDKALQHVPLEQICRMLIKTCRTLGIDVQYHDLDPVELKEFLVARKEKVDAQLKDLADKKAAKMLRTT,not soluble
17,MLNFLSISSEPKIKSLAIGKFDGLHLGHQALFKELKDPKALLIIEKKHYTKGYLTPLKYRAKLVGMPLFFVYLEEISQLNALDFLDLLKKKFPHLERLVVGYDFRFGHERQNDALFLKERFEKTIIVPEVKVQEISVHSKMIKLALSHGDLSLANKLLGRPYEVCGEVISDQGLGHKELAPTLNIKTKDFILPSFGVYASLVKIKDPIYQKSVSFIGNRLSTDQNFAIECHVLDTIIENPPQEIALRWVQKIRDNMRFSSLKELKNQIQQDILRAKEILR,not soluble
18,MGSDKIHHHHHHMSNNKCITVIGGVYIERYAWPHWDELYGSGGRALSVLQSLGCATKLYSCLNKDSANILQARAGIYKTSFEICSSLKESYRPIKFHYLHGLSTPQISAITTEFAQQNEIIEDNILVFGMLEGNPTISGNKVVYDPQNPISPKDFSENGSTANELAIVLNTNEAYKLIKNRNLSLDEIAYELIKNKAKVVIIKQGVRGVNIYQKLNDRYIKKDSVPCYFTKNVWKIGSGDCFSAHFAYQWIYEGKTPTEAAELASKATAYYCETRGYPSFEEFTNWKNRVQPITHRHSEKKVTVYLAGPFFTLSQIWLINETRRLLSEMGLIVFSPYHEIGTGDAIMVVPKDIDGINNSDIIFAIFDGKDSGTIFEIGYATAKNKPVIVYNENEKSEDLKMMEGTDCIVIKDYVSAIYRTLWESQKL,not soluble
19,MNSILSLIGRDTELFHQDINANEKELQSVVSQSRFLVLGGAGSIGQAVTKEIFKRNPQKLHVVDISENNMVELVRDIRSSFGYINGDFQTFALDIGSIEYDAFIKADGQYDYVLNLSALKHVRSEKDPFTLMRMIDVNVFNTDKTIQQSIDAGAKKYFCVSTDKAANPVNMMGASKRIMEMFLMRKSEEIAISTARFANVAFSDGSLLHGFNQRIQKNQPIVAPNDIKRYFVTPQESGELCLMSCIFGENRDIFFPKLSEALHLISFADIAVKYLKQLGYEPHLCESEDEARELAKTLPAQGKWPCLFTSSDTTGEKDFEEFFTDKETLDMARFDNLGIIKNDSLYQQELLELFEQKIGQMKTDRQWTKEEIVQLFFIMIPDFGHKETGKYLDSKM,soluble
